We go through one substance from US10131691B2, “Compositions and methods for specific regulation of pyruvate dehydrogenase kinase” (THE BOARD OF TRUSTEES OF THE LELAND STANFORD JUNIOR …, priority 2011, dated 2018).

No end group written: not given here.

This experiment concerns the target βIPKC (Homo sapiens, UniProt P05771). Briefly: Proteinase K sensitivity of βIPKC. In kind it is binding.

Chain of βIPKC (P05771 whole entry): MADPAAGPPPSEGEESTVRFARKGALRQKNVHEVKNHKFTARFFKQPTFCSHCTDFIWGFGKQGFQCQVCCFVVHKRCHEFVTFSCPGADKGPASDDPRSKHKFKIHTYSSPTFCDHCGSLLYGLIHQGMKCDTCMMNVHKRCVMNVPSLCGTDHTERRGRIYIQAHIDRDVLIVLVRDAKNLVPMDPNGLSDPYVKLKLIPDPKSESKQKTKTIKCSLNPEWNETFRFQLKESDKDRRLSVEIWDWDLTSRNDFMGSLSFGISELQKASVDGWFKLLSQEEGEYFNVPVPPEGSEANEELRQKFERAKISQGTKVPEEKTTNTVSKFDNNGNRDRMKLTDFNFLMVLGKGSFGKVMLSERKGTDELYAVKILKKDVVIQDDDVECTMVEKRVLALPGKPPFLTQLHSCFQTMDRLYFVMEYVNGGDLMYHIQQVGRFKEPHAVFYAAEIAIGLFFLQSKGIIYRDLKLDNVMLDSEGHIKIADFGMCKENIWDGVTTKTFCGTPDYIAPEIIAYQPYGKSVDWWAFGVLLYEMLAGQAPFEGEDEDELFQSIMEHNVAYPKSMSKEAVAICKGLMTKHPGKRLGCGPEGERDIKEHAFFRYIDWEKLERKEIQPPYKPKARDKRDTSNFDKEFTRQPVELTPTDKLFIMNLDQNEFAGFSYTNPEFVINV

Regarding “ALSTER (not fully specified (C-terminus); also: TAT47-57 conjugated via disulfide) [ΨPDK, for cells and hearts conjugated to TAT47-57 via disulfide bond]”, the “sensitivity of βIPKC to proteolysis by PK” value is on record as “unaffected”.
